This is an account of results in US10590192B2, “Midkine antibody” (Cellmid Limited, priority 2014, dated 2020).

Changes are numbered by the printed parent chain.

Experiment [1] addresses T1, recombinant human MK (huMK) (Homo sapiens, UniProt P21741).
T1 sequence (P21741 21-143): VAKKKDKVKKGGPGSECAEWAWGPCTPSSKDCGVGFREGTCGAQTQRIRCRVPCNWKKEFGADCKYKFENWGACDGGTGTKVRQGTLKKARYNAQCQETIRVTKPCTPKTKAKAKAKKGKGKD
Put plainly: ELISA binding of humanised anti-MK antibodies to huMK. The note with it: ELISA, plates coated with 2 ug/mL huMK; read-out: Binding affinity for huMK, ELISA EC50. Here is the method: (§1) The binding specificity and affinity of the humanised anti-MK antibodies to recombinant human MK (huMK) and murine MK (muMK) was assessed by ELISA. ELISA plates (Nunc Immuno MaxiSorp 96 well flat-bottom were coated with 100 uL of 2 ug/mL of either huMK or muMK in 2% BSA/PBS (overnight at room temperature). After washing, blocking (1 h at 37° C.), and washing again, the humanised anti-MK and chimeric antibodies described in Example 1 were analysed for binding to huMK or muMK at concentrations ranging between 3 μg/ml and 0.00004 μg/ml in 2% BSA/PBS (1 h at 37° C.). After washing, the binding of antibody was detected with goat anti-mouse IgG (Fab specific)-HRP conjugate (Sigma, Cat. No. A9917) and SigmaFast OPD substrate (Sigma, Cat. No. P9187). The reaction was stopped with 3 M HCl, absorbance read at 490 nm on a Dynex Technologies MRX TC II plate reader and the binding curves plotted. Binding affinity data for the humanised anti-MK antibodies to huMK and muMK are presented in Table 6 and Table 7 respectively, and in FIG. 3.
(§2) KD values for hIP14-H5L8, hIP14-H6L3 and hIP14-H6L8 was then compared with the KD values obtained for the corresponding murine IP14 precursor antibody and the chimeric antibody using the methods described in Example 2. […] Based on this finding, these candidate antibodies were produced to 100 mg scale to enable further testing in functional assays to determine biological function.
(ELISA stands for enzyme-linked immunosorbent assay.)

The target of a further experiment is T2, murine MK (muMK) (Mus musculus, UniProt P12025).
T2 sequence (P12025 23-140): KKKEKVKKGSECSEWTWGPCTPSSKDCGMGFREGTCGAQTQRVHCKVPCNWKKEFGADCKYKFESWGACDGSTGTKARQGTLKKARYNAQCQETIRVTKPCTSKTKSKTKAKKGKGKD
The experiment can be described thus: ELISA binding of humanised anti-MK antibodies to muMK. The conditions noted are these: ELISA, plates coated with 2 ug/mL muMK; read-out: Binding affinity for muMK, ELISA EC50. Here is the method: as §1, §2

B1: IP14-H5L5: humanised IP14 antibody: VH SEQ ID NO: 6, VL SEQ ID NO: 14 (antibody, V domains shown)
VH: QVQLVQSGGGLVQPGGSLRLSCAASGQSFSSYWMNWVRQAPGQGLEWIGMIHPSDSETILNQKFKDKATLTVDISKNTAYLQMNSLRAEDTAVYYCSSWSAKRGDFWGQGTLVTVSS
VL: EIVLTQSPATLSLSPGERATLSCRASQGVSSNLAWYQQKPGQAPRLLIYDASNRATGIPARFSGSGPGTDFTLTISSLEPEDFAVYYCQQSNSWPLTFGQGTKVEIKR
modifications: Variable region heavy chain humanised variant 5 (VH5); Variable region light chain humanised variant 5 (VL5)
B1: the EC50 (in experiment [1]; with murine MK (muMK)) was over 10 nM throughout.

B2: IP14-H2L5: humanised IP14 antibody: VH SEQ ID NO: 3, VL SEQ ID NO: 14 (antibody, V domains shown)
VH: QVQLVQSGAEVKKPGASVKVSCKASGQSFSSYWMNWVRQAPGQGLEWIGMIHPSDSETILNQKFKDKATLTVDISTSTAYMELSSLRSEDTAVYYCSSWSAKRGDFWGQGTLVTVSS
VL: B1 VL
modifications: Variable region heavy chain humanised variant 2 (VH2); Variable region light chain humanised variant 5 (VL5)
As to B2, the EC50 (in experiment [1]; with murine MK (muMK)) was over 10 nM throughout.

B3: IP14-H4L5: humanised IP14 antibody: VH SEQ ID NO: 5, VL SEQ ID NO: 14 (antibody, V domains shown)
VH: QVQLVQSGAEVKKPGASVKVSCKASGYTFTSYYMHWVRQAPGQGLEWMGIIHPSGGSTSYAQKFQGRVTMTRDTSTSTVYMELSSLRSEDTAVYYCARWSAKRGDFWGQGTLVTVSS
VL: B1 VL
modifications: Variable region heavy chain humanised variant 4 (VH4); Variable region light chain humanised variant 5 (VL5)
As for B3, the EC50 (in experiment [1]; with murine MK (muMK)) was over 10 nM throughout.

B4: IP14-H6L5: humanised IP14 antibody: VH SEQ ID NO: 7, VL SEQ ID NO: 14 (antibody, V domains shown)
VH: B1 VH with Q13K, G16H, Q43K, T71S, S75A, T78S
VL: B1 VL
modifications: Variable region heavy chain humanised variant 6 (VH6); Variable region light chain humanised variant 5 (VL5)
With B4, the EC50 (in experiment [1]; with murine MK (muMK)) was over 10 nM throughout.

B5: IP14-H1L5: humanised IP14 antibody: VH SEQ ID NO: 2, VL SEQ ID NO: 14 (antibody, V domains shown)
VH: B2 VH with A16H, L86P
VL: B1 VL
modifications: Variable region heavy chain humanised variant 1 (VH1); Variable region light chain humanised variant 5 (VL5)
On to B5, for which the EC50 (in experiment [1]; with murine MK (muMK)) was over 10 nM in each case.

B6: IP14-H3L5: humanised IP14 antibody: VH SEQ ID NO: 4, VL SEQ ID NO: 14 (antibody, V domains shown)
VH: B2 VH with I48M, A68V, L70M, V72R, I74T, A79V, S97A, S98R
VL: B1 VL
modifications: Variable region heavy chain humanised variant 3 (VH3); Variable region light chain humanised variant 5 (VL5)
Regarding B6, the EC50 (usually the concentration giving half of the maximal effect) in experiment [1] is over 10 nM.

B7: IP14-H4L1: humanised IP14 antibody: VH SEQ ID NO: 5, VL SEQ ID NO: 10 (antibody, V domains shown)
VH: B3 VH
VL: EIVLTQSPATLSLSPGERANLSCRASESISNNLHWYQQKPHQAPRLLIKYASQSISGIPARFSGSGPGTDFNLTISSVEPEDFAVYYCQQSNSWPLTFGGGTKLEIKR
modifications: Variable region heavy chain humanised variant 4 (VH4); Variable region light chain humanised variant 1 (VL1)
With B7, the EC50 (in experiment [1]; with murine MK (muMK)) was over 10 nM each time.

B8: IP14-H4L2: humanised IP14 antibody: VH SEQ ID NO: 5, VL SEQ ID NO: 11 (antibody, V domains shown)
VH: B3 VH
VL: B7 VL with N20T, H41G, N72T
modifications: Variable region heavy chain humanised variant 4 (VH4); Variable region light chain humanised variant 2 (VL2)
On to B8, for which the EC50 (in experiment [1]; with murine MK (muMK)) was over 10 nM throughout.

B9: IP14-H4L6: humanised IP14 antibody: VH SEQ ID NO: 5, VL SEQ ID NO: 15 (antibody, V domains shown)
VH: B3 VH
VL: EIVLTQSPSTLSASVGDRVNITCRASESISNNLHWYQQKPHKAPKLLIYYASQSISGVPSRFSGSGSGTEFNLTISSVQPDDFATYYCQQSNSWPLTFGQGTKVEIKR
modifications: Variable region heavy chain humanised variant 4 (VH4); Variable region light chain humanised variant 6 (VL6)
Consider B9, for which the 50% effective concentration (EC50) (in experiment [1]; with murine MK (muMK)) was over 10 nM throughout.

B10: IP14-H4L3: humanised IP14 antibody: VH SEQ ID NO: 5, VL SEQ ID NO: 12 (antibody, V domains shown)
VH: B3 VH
VL: B7 VL with E1D, N20T, H41G, K49Y, N72T, V78L
modifications: Variable region heavy chain humanised variant 4 (VH4); Variable region light chain humanised variant 3 (VL3)
B10: the half-maximal effective concentration (EC50) (in experiment [1]; in the experiment with murine MK (muMK)) was over 10 nM in each case.

B11: IP14-H3L4: humanised IP14 antibody: VH SEQ ID NO: 4, VL SEQ ID NO: 13 (antibody, V domains shown)
VH: B2 VH with I48M, A68V, L70M, V72R, I74T, A79V, S97A, S98R
VL: EIVLTQSPDFQSVTPKEKVNITCRASESISNNLHWYQQKPHQSPKLLIYYASQSISGVPSRFSGSGSGTDFNLTINSVEAEDAATYYCQQSNSWPLTFGGGTKLEIKR
modifications: Variable region heavy chain humanised variant 3 (VH3); Variable region light chain humanised variant 4 (VL4)
For the molecule B11, the concentration for a half-maximal effect (EC50) in experiment [1] is over 10 nM.

B12: IP14-H3L7: humanised IP14 antibody: VH SEQ ID NO: 4, VL SEQ ID NO: 16 (antibody, V domains shown)
VH: B2 VH with I48M, A68V, L70M, V72R, I74T, A79V, S97A, S98R
VL: B7 VL with E1D, K49Y, I58V, P67S, G100Q, L104V
modifications: Variable region heavy chain humanised variant 3 (VH3); Variable region light chain humanised variant 7 (VL7)
In the case of B12, the EC50 in experiment [1] was over 10 nM.

B13: IP14-H3L8: humanised IP14 antibody: VH SEQ ID NO: 4, VL SEQ ID NO: 17 (antibody, V domains shown)
VH: B2 VH with I48M, A68V, L70M, V72R, I74T, A79V, S97A, S98R
VL: B7 VL with E1D, N20T, K49Y, I58V, P67S, N72T, G100Q, L104V
modifications: Variable region heavy chain humanised variant 3 (VH3); Variable region light chain humanised variant 8 (VL8)
For the molecule B13, the EC50 in experiment [1] was over 10 nM.

B14: IP14-H4L4: humanised IP14 antibody: VH SEQ ID NO: 5, VL SEQ ID NO: 13 (antibody, V domains shown)
VH: B3 VH
VL: B11 VL
modifications: Variable region heavy chain humanised variant 4 (VH4); Variable region light chain humanised variant 4 (VL4)
For B14, the half-maximal effective concentration (EC50) (in experiment [1]; in the experiment with murine MK (muMK)) was over 10 nM each time.
